Legend:
[1] = molecular target: T1, hemagglutinin of A/Vietnam/1203/04 (H5N1) on virus (influenza A virus H5N1, …, UniProt Q80A26 6-557); assay: inferred from HI and virus neutralization assays
[2] = molecular target: T1, hemagglutinin of A/Vietnam/1203/04 …; assay: HI assay

Binder	binding result [1]	binding result [2]
VN04-3 (antibody, V domains shown) VH: QVQLQESGPDLVKPGASVMISCKASGYSFTYYYMHWVKQSHGKTLEWIGRIYPYNGDTNYNRRFKDKAILTVDESSSTAYMELRSLTSEDSAVYFCARDANYEGDWYFDVWGQGTTVTVSS VL: DIQMTQSPSSFSVSLGDRVTITCKASEDIYNRVAWYQQKPGNAPRLLMSDATSLGAGVPSRFSGSGSGKDHTLSITSLQTEDVATYYCQQYWNTRTFGGGTKLEIKR	binds	
VN04-3-huG1 (antibody, V domains shown) VH: QVQLQESGPDLVKPGASVMISCKASGYSFTYYYMHWVKQSHGKTLEWIGRIYPYNGDTNYNRRFKDKAILTVDESSSTAYMELRSLTSEDSAVYFCARDANYEGDWYFDVWGQGTTVTVSS VL: DIQMTQSPSSFSVSLGDRVTITCKASEDIYNRVAWYQQKPGNAPRLLMSDATSLGAGVPSRFSGSGSGKDHTLSITSLQTEDVATYYCQQYWNTRTFGGGTKLEIKR		binds

From patent US20100150941A1 (DSO NATIONAL LABORATORIES, published 2010)
